The values below are quoted from earlier work in PMC10941800.

Like-named read-outs stand apart in the source and are kept apart here.

By Kd is commonly meant a measure of binding affinity in units of concentration.

Common to all, as to conditions: cited from earlier work
Series [1] deals with measles virus hemagglutinin (Measles morbillivirus) (UniProt P08362).
The target is the same in series [2]. This is another data set of the same source.
The target is the same in series [3]. The source holds these as a separate data set.

Sequence of UniProt P08362 (P08362 59-617): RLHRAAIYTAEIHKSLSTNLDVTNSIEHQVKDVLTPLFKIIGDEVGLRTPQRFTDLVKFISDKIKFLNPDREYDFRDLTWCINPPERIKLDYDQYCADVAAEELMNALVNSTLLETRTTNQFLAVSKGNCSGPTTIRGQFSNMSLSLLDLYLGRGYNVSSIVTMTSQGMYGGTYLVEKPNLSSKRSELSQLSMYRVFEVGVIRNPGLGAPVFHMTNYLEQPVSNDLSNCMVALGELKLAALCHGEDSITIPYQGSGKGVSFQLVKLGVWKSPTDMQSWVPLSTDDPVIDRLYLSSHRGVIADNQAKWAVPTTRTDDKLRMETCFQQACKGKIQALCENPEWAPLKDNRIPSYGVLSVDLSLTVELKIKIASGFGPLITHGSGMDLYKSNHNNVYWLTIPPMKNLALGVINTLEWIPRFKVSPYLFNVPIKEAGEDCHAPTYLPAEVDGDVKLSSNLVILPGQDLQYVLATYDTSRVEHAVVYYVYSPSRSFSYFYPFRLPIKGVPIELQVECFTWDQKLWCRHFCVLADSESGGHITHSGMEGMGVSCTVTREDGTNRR

Nectin-4 (from UniProt Q96NY8): in series [1], the Kd was 0.67 µM.
Turning to SLAM (from UniProt Q13291), in series [2], the Kd is 0.17 µM.
Regarding CD46 (from UniProt P15529), the Kd in series [3] was 0.2 µM.
